Holding throughout (experiment): purified protein
Substrate in series [1]: CC(=O)O
As to conditions: OAc to Ac-P, varying ATP, 4.2 mM MgCl2, 100 mM HEPES, 400 mM potassium glutamate, pH 7.5, apparent Km.

Substrate in series [2]: Nc1ncnc2c1ncn2[C@@H]1O[C@H](COP(=O)(O)OP(=O)(O)OP(=O)(O)O)[C@@H](O)[C@H]1O
The series is classed as biochemical, Lactococcus cremoris. As to conditions: OAc to Ac-P, varying acetate, 4.2 mM MgCl2, 100 mM HEPES, 400 mM potassium glutamate, pH 7.5.

Substrate in series [3]: CC(=O)OP(=O)(O)O
The series is classed as biochemical, Lactococcus cremoris. Particulars: Ac-P to OAc, varying ADP, 5 mM MgSO4, 100 mM HEPES, 400 mM potassium glutamate, pH 7.5.

Substrate in series [4]: Nc1ncnc2c1ncn2[C@@H]1O[C@H](COP(=O)(O)OP(=O)(O)O)[C@@H](O)[C@H]1O
The series is classed as biochemical, Lactococcus cremoris. Particulars: Ac-P to OAc, varying Ac-P, 5 mM MgSO4, 100 mM HEPES, 400 mM potassium glutamate, pH 7.5.

B1: AckA2 (Lactococcus cremoris subsp. cremoris MG1363) (protein)
chain: MEKTLAVNAGSSSLKWQLYEMPEETVIAKGIFERIGLSGSISTTKFNNEEHVRKQEIVDHRQAVLLLMDELIHFQLIHEFREITGIGHRVVAGGEFFKDSTIITPEVLAEIKNLSTLAPLHNPANVLGIEAFQRLLPDALAVAVFDTAFHSTLPEKAYRYPIPTKYYEDYSIRKYGAHGTSHMYVAQEAAKVLGKPLEELKIITAHIGNGASITAIEGGKSVDTSMGFTPLAGVMMGTRAGEMDASVIPYMLESDPSLRNAQDVIDILNKESGVLGVSELSSDMRDLSEAVAKGNPKAILAYEMYVDRLKKFIAQYFGVLNGADALIFTAGVGENDTAVRTDVVNGLSWFGMEIDESKNVRGAFGIISKPESKVKVLVVPTNEELVIARDVEAAK
notes: His-tagged (vector pQE30, N-terminal tag kept), from E. coli M15 pREP4 groESL, Ni-NTA; 84 kDa by gel filtration, monomer 43 kDa, homodimer; residue I331 in ATP site
In the case of B1, the Km in series [1] is given as 1.87 (0.29) mM; in series [2], 0.21 (0.12) mM; in series [3], 0.086 (0.02) mM; in series [4], 1.15 (0.12) mM. In addition, the figures for the kcat in series [1], in series [2] and in series [4] were 394 s⁻¹, 394 s⁻¹ and 282 s⁻¹, respectively.

B2: AckA1 (Lactococcus cremoris subsp. cremoris MG1363) (protein)
chain: MTKTLAVNAGSSSMKWQMYEMPEEKVLAKGLIERIGLKDSIVTVKFGEEKEERVFDIPNHTEAVEVLLEDLKRLKIVEEFTEITGVGHRVVAGGEIFQKSTVVTPEVLQQVKDLSALAPLHNPANAAGIEAFLNLLPDATSVVVFDTAFHTTMPEKAFRYPLPKKYYTDYAVRKYGAHGTSHMYVSQEAAKLLGKPIEETKIITAHIGNGASITAVKGGESVDTSMGFTPLAGVMMGTRTGEMDPSVFPYLIENDSELKDAQDVVDMMNKESGLYGVSGISSDMRDIIAAKDTDADAKLAFEMYVDRIQKFIGQYLAVLNGADALVFTAGIGENSVPVREAILSGLTWFGIEVDPEKNVFGVEGEISKPSSRLKVFVIPTDEELVIARDVEALKK
notes: His-tagged (vector pQE30, N-terminal tag kept), from E. coli M15 pREP4 groESL, Ni-NTA; 100 kDa by gel filtration, monomer 43 kDa, homodimer; residue V331 in ATP site
For the protein B2, the Km in series [1] was 22.07 (1.05) mM; in series [2], 0.086 (0.0078) mM; in series [3] it was 0.35 (0.02) mM; in series [4], 0.94 (0.09) mM. In addition, the kcat in series [1] came to 3234 s⁻¹; in series [2], 3234 s⁻¹; in series [4] it was 1033 s⁻¹.

The values are drawn from paper PMC3956926, “Acetate Kinase Isozymes Confer Robustness in Acetate Metabolism” (PLoS ONE, 2014).
